{
  "source": "the Human Domainome abundance scans (Beltran et al. 2025)",
  "note": "± gives the uncertainty stated by the source.",
  "data": [
    {"experiment": "abundance fitness (aPCA) (normalised: wild type 0, dead -1); higher = more abundant; growth selection in yeast, the domain comes from the species named", "conditions": "Homo sapiens", "values": [
      {"substance": "Transcriptional activator Myb A167C, P10242", "abundance fitness": "-0.17 ± 0.12"},
      {"substance": "Transcriptional activator Myb A167D, P10242", "abundance fitness": "-0.177 ± 0.16"},
      {"substance": "Transcriptional activator Myb A167E, P10242", "abundance fitness": "0.009 ± 0.13"},
      {"substance": "Transcriptional activator Myb A167F, P10242", "abundance fitness": "-0.092 ± 0.12"},
      {"substance": "Transcriptional activator Myb A167G, P10242", "abundance fitness": "0.045 ± 0.06"},
      {"substance": "Transcriptional activator Myb A167H, P10242", "abundance fitness": "0.258 ± 0.24"},
      {"substance": "Transcriptional activator Myb A167I, P10242", "abundance fitness": "-0.253 ± 0.22"},
      {"substance": "Transcriptional activator Myb A167K, P10242", "abundance fitness": "-0.124 ± 0.11"},
      {"substance": "Transcriptional activator Myb A167L, P10242", "abundance fitness": "-0.224 ± 0.079"},
      {"substance": "Transcriptional activator Myb A167M, P10242", "abundance fitness": "-0.313 ± 0.15"},
      {"substance": "Transcriptional activator Myb A167N, P10242", "abundance fitness": "-0.058 ± 0.11"},
      {"substance": "Transcriptional activator Myb A167P, P10242", "abundance fitness": "0.037 ± 0.12"},
      {"substance": "Transcriptional activator Myb A167Q, P10242", "abundance fitness": "0.015 ± 0.14"},
      {"substance": "Transcriptional activator Myb A167R, P10242", "abundance fitness": "-0.146 ± 0.069"},
      {"substance": "Transcriptional activator Myb A167S, P10242", "abundance fitness": "-0.095 ± 0.09"},
      {"substance": "Transcriptional activator Myb A167T, P10242", "abundance fitness": "-0.126 ± 0.12"},
      {"substance": "Transcriptional activator Myb A167V, P10242", "abundance fitness": "-0.083 ± 0.1"},
      {"substance": "Transcriptional activator Myb A167W, P10242", "abundance fitness": "-0.27 ± 0.063"},
      {"substance": "Transcriptional activator Myb A167Y, P10242", "abundance fitness": "-0.172 ± 0.12"},
      {"substance": "Transcriptional activator Myb A170C, P10242", "abundance fitness": "-0.137 ± 0.13"},
      {"substance": "Transcriptional activator Myb A170D, P10242", "abundance fitness": "-0.692 ± 0.12"},
      {"substance": "Transcriptional activator Myb A170E, P10242", "abundance fitness": "-0.285 ± 0.12"},
      {"substance": "Transcriptional activator Myb A170F, P10242", "abundance fitness": "-0.896 ± 0.19"},
      {"substance": "Transcriptional activator Myb A170G, P10242", "abundance fitness": "-0.229 ± 0.058"},
      {"substance": "Transcriptional activator Myb A170H, P10242", "abundance fitness": "-0.716 ± 0.26"},
      {"substance": "Transcriptional activator Myb A170I, P10242", "abundance fitness": "-1.45 ± 0.42"},
      {"substance": "Transcriptional activator Myb A170K, P10242", "abundance fitness": "-0.581 ± 0.14"},
      {"substance": "Transcriptional activator Myb A170L, P10242", "abundance fitness": "-0.743 ± 0.082"},
      {"substance": "Transcriptional activator Myb A170M, P10242", "abundance fitness": "-0.393 ± 0.11"},
      {"substance": "Transcriptional activator Myb A170N, P10242", "abundance fitness": "-0.655 ± 0.28"},
      {"substance": "Transcriptional activator Myb A170P, P10242", "abundance fitness": "-0.809 ± 0.18"},
      {"substance": "Transcriptional activator Myb A170Q, P10242", "abundance fitness": "-0.056 ± 0.094"},
      {"substance": "Transcriptional activator Myb A170R, P10242", "abundance fitness": "-0.516 ± 0.059"},
      {"substance": "Transcriptional activator Myb A170S, P10242", "abundance fitness": "-0.038 ± 0.087"},
      {"substance": "Transcriptional activator Myb A170T, P10242", "abundance fitness": "-0.771 ± 0.12"},
      {"substance": "Transcriptional activator Myb A170V, P10242", "abundance fitness": "-0.428 ± 0.063"},
      {"substance": "Transcriptional activator Myb A170W, P10242", "abundance fitness": "-0.811 ± 0.12"},
      {"substance": "Transcriptional activator Myb A170Y, P10242", "abundance fitness": "-1.08 ± 0.18"},
      {"substance": "Transcriptional activator Myb A180C, P10242", "abundance fitness": "-0.021 ± 0.12"},
      {"substance": "Transcriptional activator Myb A180D, P10242", "abundance fitness": "-0.022 ± 0.12"},
      {"substance": "Transcriptional activator Myb A180E, P10242", "abundance fitness": "0.062 ± 0.098"},
      {"substance": "Transcriptional activator Myb A180G, P10242", "abundance fitness": "-0.244 ± 0.049"},
      {"substance": "Transcriptional activator Myb A180H, P10242", "abundance fitness": "-0.23 ± 0.097"},
      {"substance": "Transcriptional activator Myb A180I, P10242", "abundance fitness": "-0.005 ± 0.32"},
      {"substance": "Transcriptional activator Myb A180K, P10242", "abundance fitness": "-0.266 ± 0.082"},
      {"substance": "Transcriptional activator Myb A180L, P10242", "abundance fitness": "-0.111 ± 0.073"},
      {"substance": "Transcriptional activator Myb A180M, P10242", "abundance fitness": "-0.058 ± 0.16"},
      {"substance": "Transcriptional activator Myb A180N, P10242", "abundance fitness": "-0.134 ± 0.33"},
      {"substance": "Transcriptional activator Myb A180P, P10242", "abundance fitness": "-0.76 ± 0.12"},
      {"substance": "Transcriptional activator Myb A180Q, P10242", "abundance fitness": "-0.002 ± 0.12"},
      {"substance": "Transcriptional activator Myb A180R, P10242", "abundance fitness": "-0.327 ± 0.051"},
      {"substance": "Transcriptional activator Myb A180S, P10242", "abundance fitness": "-0.051 ± 0.083"},
      {"substance": "Transcriptional activator Myb A180T, P10242", "abundance fitness": "-0.174 ± 0.078"},
      {"substance": "Transcriptional activator Myb A180W, P10242", "abundance fitness": "-0.28 ± 0.11"},
      {"substance": "Transcriptional activator Myb A180Y, P10242", "abundance fitness": "-0.803 ± 0.43"},
      {"substance": "Transcriptional activator Myb D152A, P10242", "abundance fitness": "-0.24 ± 0.066"},
      {"substance": "Transcriptional activator Myb D152C, P10242", "abundance fitness": "-0.833 ± 0.14"},
      {"substance": "Transcriptional activator Myb D152E, P10242", "abundance fitness": "0.105 ± 0.077"},
      {"substance": "Transcriptional activator Myb D152F, P10242", "abundance fitness": "-0.752 ± 0.12"},
      {"substance": "Transcriptional activator Myb D152G, P10242", "abundance fitness": "-0.452 ± 0.053"},
      {"substance": "Transcriptional activator Myb D152H, P10242", "abundance fitness": "-0.695 ± 0.22"},
      {"substance": "Transcriptional activator Myb D152K, P10242", "abundance fitness": "-0.311 ± 0.1"},
      {"substance": "Transcriptional activator Myb D152L, P10242", "abundance fitness": "-0.249 ± 0.075"},
      {"substance": "Transcriptional activator Myb D152M, P10242", "abundance fitness": "-0.381 ± 0.15"},
      {"substance": "Transcriptional activator Myb D152N, P10242", "abundance fitness": "-0.227 ± 0.074"},
      {"substance": "Transcriptional activator Myb D152Q, P10242", "abundance fitness": "-0.065 ± 0.12"},
      {"substance": "Transcriptional activator Myb D152R, P10242", "abundance fitness": "-0.519 ± 0.068"},
      {"substance": "Transcriptional activator Myb D152S, P10242", "abundance fitness": "-0.287 ± 0.072"},
      {"substance": "Transcriptional activator Myb D152T, P10242", "abundance fitness": "-0.138 ± 0.082"},
      {"substance": "Transcriptional activator Myb D152V, P10242", "abundance fitness": "-0.304 ± 0.067"},
      {"substance": "Transcriptional activator Myb D152W, P10242", "abundance fitness": "-0.403 ± 0.098"},
      {"substance": "Transcriptional activator Myb D152Y, P10242", "abundance fitness": "-0.38 ± 0.12"},
      {"substance": "Transcriptional activator Myb D178N, P10242", "abundance fitness": "-0.533 ± 0.35"},
      {"substance": "Transcriptional activator Myb E149D, P10242", "abundance fitness": "-0.008 ± 0.27"},
      {"substance": "Transcriptional activator Myb E149G, P10242", "abundance fitness": "-0.143 ± 0.16"},
      {"substance": "Transcriptional activator Myb E149L, P10242", "abundance fitness": "0.009 ± 0.22"},
      {"substance": "Transcriptional activator Myb E149N, P10242", "abundance fitness": "-0.526 ± 0.35"},
      {"substance": "Transcriptional activator Myb E149R, P10242", "abundance fitness": "-0.203 ± 0.12"},
      {"substance": "Transcriptional activator Myb E149S, P10242", "abundance fitness": "-0.188 ± 0.4"},
      {"substance": "Transcriptional activator Myb E149T, P10242", "abundance fitness": "-0.634 ± 0.43"},
      {"substance": "Transcriptional activator Myb E149W, P10242", "abundance fitness": "-0.719 ± 0.47"},
      {"substance": "Transcriptional activator Myb E150A, P10242", "abundance fitness": "0.099 ± 0.075"},
      {"substance": "Transcriptional activator Myb E150C, P10242", "abundance fitness": "-0.219 ± 0.1"},
      {"substance": "Transcriptional activator Myb E150D, P10242", "abundance fitness": "-0.152 ± 0.095"},
      {"substance": "Transcriptional activator Myb E150F, P10242", "abundance fitness": "-0.129 ± 0.16"},
      {"substance": "Transcriptional activator Myb E150H, P10242", "abundance fitness": "-0.41 ± 0.15"},
      {"substance": "Transcriptional activator Myb E150I, P10242", "abundance fitness": "-0.172 ± 0.12"},
      {"substance": "Transcriptional activator Myb E150K, P10242", "abundance fitness": "0.117 ± 0.11"},
      {"substance": "Transcriptional activator Myb E150L, P10242", "abundance fitness": "-0.17 ± 0.064"},
      {"substance": "Transcriptional activator Myb E150M, P10242", "abundance fitness": "-0.097 ± 0.086"},
      {"substance": "Transcriptional activator Myb E150N, P10242", "abundance fitness": "-0.004 ± 0.15"},
      {"substance": "Transcriptional activator Myb E150P, P10242", "abundance fitness": "-0.468 ± 0.12"},
      {"substance": "Transcriptional activator Myb E150Q, P10242", "abundance fitness": "0.026 ± 0.14"},
      {"substance": "Transcriptional activator Myb E150R, P10242", "abundance fitness": "0 ± 0.061"},
      {"substance": "Transcriptional activator Myb E150T, P10242", "abundance fitness": "-0.103 ± 0.1"},
      {"substance": "Transcriptional activator Myb E150V, P10242", "abundance fitness": "-0.207 ± 0.061"},
      {"substance": "Transcriptional activator Myb E150W, P10242", "abundance fitness": "-0.208 ± 0.083"},
      {"substance": "Transcriptional activator Myb E151A, P10242", "abundance fitness": "-0.597 ± 0.066"},
      {"substance": "Transcriptional activator Myb E151C, P10242", "abundance fitness": "-1.1 ± 0.21"},
      {"substance": "Transcriptional activator Myb E151D, P10242", "abundance fitness": "-0.348 ± 0.15"},
      {"substance": "Transcriptional activator Myb E151F, P10242", "abundance fitness": "-0.927 ± 0.19"},
      {"substance": "Transcriptional activator Myb E151G, P10242", "abundance fitness": "-0.815 ± 0.056"},
      {"substance": "Transcriptional activator Myb E151H, P10242", "abundance fitness": "-0.57 ± 0.13"},
      {"substance": "Transcriptional activator Myb E151I, P10242", "abundance fitness": "-0.49 ± 0.14"},
      {"substance": "Transcriptional activator Myb E151L, P10242", "abundance fitness": "-0.482 ± 0.069"},
      {"substance": "Transcriptional activator Myb E151M, P10242", "abundance fitness": "-0.624 ± 0.12"},
      {"substance": "Transcriptional activator Myb E151N, P10242", "abundance fitness": "-0.674 ± 0.12"},
      {"substance": "Transcriptional activator Myb E151P, P10242", "abundance fitness": "-0.758 ± 0.15"}
    ]}
  ]
}
